Experimental findings from patent US7786083B2, “Metastin derivatives and use thereof” (Takeda Pharmaceutical Company Limited, priority 2006, dated 2010) are described below.

[ ]: non-standard residue; d: D form. Phe(3-Me) = Cc1cccc(C[C@H](N)C(=O)O)c1; Phe(4-Me) = Cc1ccc(C[C@H](N)C(=O)O)cc1; Phe(2-Me) = Cc1ccccc1C[C@H](N)C(=O)O; Arg(Me) = CNC(=N)NCCC[C@H](N)C(=O)O; Dap(CONH2) = NC(=O)NC[C@H](N)C(=O)O; Ala(cPr) = N[C@@H](CC1CC1)C(=O)O; Hyp = O=C(O)[C@@H]1C[C@@H](O)CN1; αMeF = C[C@](N)(Cc1ccccc1)C(=O)O; 2Pal = N[C@@H](Cc1ccccn1)C(=O)O; 3Pal = N[C@@H](Cc1cccnc1)C(=O)O; 4Pal = N[C@@H](Cc1ccncc1)C(=O)O; Cha = N[C@@H](CC1CCCCC1)C(=O)O

For the assay, the target named is metastin receptor (OT7T175) stably expressed on CHO/dhfr- cells (human or rat, not given). Nature of the assay: cell-based or functional assay.

As for “des(1)-Ac-[D-Tyr2,Hyp3,Thr5,Cha6,Ala7,Arg(Me)9,Trp10]MS10 (peptide)”, the Specific Activity (EC50 of test compound based on EC50 of Metastin (45-54)); agonist activity, intracellular calcium ion level, FLIPR (ratio to Metastin (45-54)) was found to be 0.5. The result for “des(1)-Ac-[D-Tyr2,Hyp3,Thr5,Dap7,Arg(Me)9,Trp10]MS10 (peptide)” reads 1.3; that for “des(1)-Ac-[D-Tyr2,Hyp3,Thr5,Phe6Ψ(CH2CH2)AzaGly7,Arg(Me)9,Trp10]MS10 (peptide)”, 0.6. The result for “des(1)-Ac-[D-Tyr2,Pro(4F)3,Thr5,Cha6,Ala(cPr)8,Arg(Me)9,Trp10]MS10 (peptide)” reads 0.4; that for Ac-[dY][Hyp]NTFAL[Arg(Me)]W-NH2 [des(1)-Ac-[D-Tyr2,Hyp3,Thr5,Ala7,Arg(Me)9,Trp10]MS10], 0.5. Under Ac-[dY][Hyp]NTFGL[Arg(Me)]W-NH2 (also: Phe5-Gly6 amide bond replaced by -CH(OH)-CH2- ((S)-CHOH)) [des(1)-Ac-[D-Tyr2,Hyp3,Thr5,Phe6Ψ((S)CHOH-CH2)Gly7,Arg(Me)9,Trp10]MS10] stands 1.2; under Ac-[dY]ENT[Cha]GL[Arg(Me)]W-NH2 [des(1)-Ac-[D-Tyr2,Glu3,Thr5,Cha6,Arg(Me)9,Trp10]MS10], 0.6; under Ac-[dY][Hyp]NTFGL[Arg(Me)]W-NH2 (also: Phe5-Gly6 amide bond replaced by -CH2O-) [des(1)-Ac-[D-Tyr2,Hyp3,Thr5,Phe6Ψ(CH2O)Gly7,Arg(Me)9,Trp10]MS10], 0.5. On to Ac-[dY][Hyp][Dap(CONH2)]TFGL[Arg(Me)]W-NH2 [des(1)-Ac-[D-Tyr2,Hyp3,Alb4,Thr5,Arg(Me)9,Trp10]MS10], for which the Specific Activity (EC50 of test compound based on EC50 of Metastin (45-54)); agonist activity, intracellular calcium ion level, FLIPR (ratio to Metastin (45-54)) worked out at 0.5. Turning to Ac-[dY]ENTFGL[Arg(Me)]W-NH2 [des(1)-Ac-[D-Tyr2,Glu3,Thr5,Arg(Me)9,Trp10]MS10], the Specific Activity (EC50 of test compound based on EC50 of Metastin (45-54)); agonist activity, intracellular calcium ion level, FLIPR (ratio to Metastin (45-54)) is 0.5. Under Ac-[dY][Hyp]NT[Phe(3-Me)]GL[Arg(Me)]W-NH2 [des(1)-Ac-[D-Tyr2,Hyp3,Thr5,Phe(3Me)6,Arg(Me)9,Trp10]MS10] stands 0.8; under Ac-[dY][Hyp][Dap(CONH2)]T[Cha]GL[Arg(Me)]W-NH2 (also: Gly6-Leu7 -CONH- replaced by (E) type alkene) [des(1)-Ac-[D-Tyr2,Hyp3,Alb4,Thr5,Cha6,Gly7Ψ((E)CH═CH)Leu8,Arg(Me)9,Trp10]MS10], 0.4; under Ac-[dY]ENT[Cha]GL[Arg(Me)]W-NH2 (also: Gly6-Leu7 -CONH- replaced by (E) type alkene) [des(1)-Ac-[D-Tyr2,Glu3,Thr5,Cha6,Gly7Ψ((E)CH═CH)Leu8,Arg(Me)9,Trp10]MS10], 0.5. Under Ac-[dY][Hyp]NTFVL[Arg(Me)]W-NH2 [des(1)-Ac-[D-Tyr2,Hyp3,Thr5,Val7,Arg(Me)9,Trp10]MS10] stands 1.7.

B1: des(1)-Ac-[D-Tyr2,Hyp3,Thr5,Cha6,Ala(cPr)8,Arg(Me)9,Trp10]MS10 (peptide)
peptide: Ac-[dY][Hyp]NT[Cha]G[Ala(cPr)][Arg(Me)]W-NH2
SMILES: CNC(=N)NCCC[C@H](NC(=O)[C@H](CC1CC1)NC(=O)CNC(=O)[C@H](CC1CCCCC1)NC(=O)[C@@H](NC(=O)[C@H](CC(N)=O)NC(=O)[C@@H]1C[C@@H](O)CN1C(=O)[C@@H](Cc1ccc(O)cc1)NC(C)=O)[C@@H](C)O)C(=O)N[C@@H](Cc1c[nH]c2ccccc12)C(N)=O
In the case of B1, the Specific Activity (EC50 of test compound based on EC50 of Metastin (45-54)); agonist activity, intracellular calcium ion level, FLIPR (ratio to Metastin (45-54)) stood at 0.5. Under Ac-[dY][Hyp]NTFGL[Arg(Me)]W-NH2 (also: Phe5-Gly6 -CONH- replaced by (R)-CH(OH)-CH2-) [des(1)-Ac-[D-Tyr2,Hyp3,Thr5,Phe6Ψ((R)CHOH-CH2)Gly7,Arg(Me)9,Trp10]MS10] stands 0.8; under Ac-[dY][Hyp]NT[3Pal]GL[Arg(Me)]W-NH2 [des(1)-Ac-[D-Tyr2,Hyp3,Thr5,Pya(3)6,Arg(Me)9,Trp10]MS10], 0.9.

B2: des(1)-Ac-[D-Tyr2,Hyp3,Thr5,αMePhe6,Arg(Me)9,Trp10]MS10 (peptide)
peptide: Ac-[dY][Hyp]NT[αMeF]GL[Arg(Me)]W-NH2
SMILES: CNC(=N)NCCC[C@H](NC(=O)[C@H](CC(C)C)NC(=O)CNC(=O)[C@](C)(Cc1ccccc1)NC(=O)[C@@H](NC(=O)[C@H](CC(N)=O)NC(=O)[C@@H]1C[C@@H](O)CN1C(=O)[C@@H](Cc1ccc(O)cc1)NC(C)=O)[C@@H](C)O)C(=O)N[C@@H](Cc1c[nH]c2ccccc12)C(N)=O
As for B2, the Specific Activity (EC50 of test compound based on EC50 of Metastin (45-54)); agonist activity, intracellular calcium ion level, FLIPR (ratio to Metastin (45-54)) was determined as 3.8.

Consider Ac-[dY][Hyp]NTFGL[Arg(Me)]W-NH2 (also: Phe5-Gly6 amide bond replaced by -CH2CH2-) [des(1)-Ac-[D-Tyr2,Hyp3,Thr5,Phe6Ψ(CH2CH2)Gly7,Arg(Me)9,Trp10]MS10], for which the Specific Activity (EC50 of test compound based on EC50 of Metastin (45-54)); agonist activity, intracellular calcium ion level, FLIPR (ratio to Metastin (45-54)) is 1.3. The result for Ac-[dY][Hyp]NT[4Pal]GL[Arg(Me)]W-NH2 [des(1)-Ac-[D-Tyr2,Hyp3,Thr5,Pya(4)6,Arg(Me)9,Trp10]MS10] reads 0.9.

Turning to Ac-[dY][Hyp]NTFGL[Arg(Me)]W-NH2 (also: Phe5-Gly6 -CONH- replaced by (E) CH=CH) [des(1)-Ac-[D-Tyr2,Hyp3,Thr5,Phe6Ψ((E)CH═CH)Gly7,Arg(Me)9,Trp10]MS10], the Specific Activity (EC50 of test compound based on EC50 of Metastin (45-54)); agonist activity, intracellular calcium ion level, FLIPR (ratio to Metastin (45-54)) stood at 0.7.

In the case of Ac-[dY][Hyp]NT[Cha]GL[Arg(Me)]W-NH2 (also: Gly6-Leu7 -CONH- replaced by (E)-CH=CH-) [des(1)-Ac-[D-Tyr2,Hyp3,Thr5,Cha6,Gly7Ψ((E)CH═CH)Leu8,Arg(Me)9,Trp10]MS10], the Specific Activity (EC50 of test compound based on EC50 of Metastin (45-54)); agonist activity, intracellular calcium ion level, FLIPR (ratio to Metastin (45-54)) amounted to 0.6.

With Ac-[dY][Hyp]NTFGL[Arg(Me)]W-NH2 [des(1)-Ac-[D-Tyr2,Hyp3,Thr5,Arg(Me)9,Trp10]MS10], the Specific Activity (EC50 of test compound based on EC50 of Metastin (45-54)); agonist activity, intracellular calcium ion level, FLIPR (ratio to Metastin (45-54)) is 1.2. Regarding Ac-[dY]ENT[Cha]G[Ala(cPr)][Arg(Me)]W-NH2 [des(1)-Ac-[D-Tyr2,Glu3,Thr5,Cha6,Ala(cPr)8,Arg(Me)9,Trp10]MS10], the Specific Activity (EC50 of test compound based on EC50 of Metastin (45-54)); agonist activity, intracellular calcium ion level, FLIPR (ratio to Metastin (45-54)) is 0.4. The result for Ac-[dY][Hyp]NT[Phe(2-Me)]GL[Arg(Me)]W-NH2 [des(1)-Ac-[D-Tyr2,Hyp3,Thr5,Phe(2Me)6,Arg(Me)9,Trp10]MS10] reads 0.7. The result for Ac-[dY][Hyp]NTFGL[Arg(Me)]W-NH2 (also: Phe5-Gly6 amide bond replaced by -CH(OH)-CH= ((S)-CHOH, (E) alkene)) [des(1)-Ac-[D-Tyr2,Hyp3,Thr5,Phe6Ψ((S)CHOH-(E)CH═)Gly7,Arg(Me)9,Trp10]MS10] reads 1.7; that for Ac-[dY][Hyp]NTFGL[Arg(Me)]W-NH2 (also: Phe5-Gly6 -CONH- replaced by (R)-CH(OH)-(E)CH= to Gly α carbon) [des(1)-Ac-[D-Tyr2,Hyp3,Thr5,Phe6Ψ((R)CHOH-(E)CH═)Gly7,Arg(Me)9,Trp10]MS10], 1.4; that for Ac-[dY][Hyp]NTFGL[Arg(Me)]W-NH2 (also: Gly6-Leu7 -CONH- replaced by (E) CH=CH) [des(1)-Ac-[D-Tyr2,Hyp3,Thr5,Gly7Ψ((E)CH═CH)Leu8,Arg(Me)9,Trp10]MS10], 0.6. In the case of Ac-[dY][Hyp]NTFGL[Arg(Me)]W-NH2 (also: Gly6-Leu7 -CONH- replaced by -CH2CH2-) [des(1)-Ac-[D-Tyr2,Hyp3,Thr5,Gly7Ψ(CH2CH2)Leu8,Arg(Me)9,Trp10]MS10], the Specific Activity (EC50 of test compound based on EC50 of Metastin (45-54)); agonist activity, intracellular calcium ion level, FLIPR (ratio to Metastin (45-54)) was determined as 0.8. For the molecule Ac-[dY][Hyp]NTFSL[Arg(Me)]W-NH2 [des(1)-Ac-[D-Tyr2,Hyp3,Thr5,Ser7,Arg(Me)9,Trp10]MS10], the Specific Activity (EC50 of test compound based on EC50 of Metastin (45-54)); agonist activity, intracellular calcium ion level, FLIPR (ratio to Metastin (45-54)) amounted to 0.6. Under Ac-[dY][Hyp]NT[Ala(cPr)]GL[Arg(Me)]W-NH2 [des(1)-Ac-[D-Tyr2,Hyp3,Thr5,Ala(cPr)6,Arg(Me)9,Trp10]MS10] stands 1.9; under Ac-[dY][Hyp]NT[Phe(4-Me)]GL[Arg(Me)]W-NH2 [des(1)-Ac-[D-Tyr2,Hyp3,Thr5,Phe(4Me)6,Arg(Me)9,Trp10]MS10], 0.9; under Ac-[dY][Hyp]NTFGL[Arg(Me)]W-NH2 (also: Phe5-Gly6 amide bond replaced by -COCH2-) [des(1)-Ac-[D-Tyr2,Hyp3,Thr5,Phe6Ψ(COCH2)Gly7,Arg(Me)9,Trp10]MS10], 1.1. The result for Ac-[dY][Hyp]NT[2Pal]GL[Arg(Me)]W-NH2 [des(1)-Ac-[D-Tyr2,Hyp3,Thr5,Pya(2)6,Arg(Me)9,Trp10]MS10] reads 1.2; that for Ac-[dY][Hyp]NTFGL[Arg(Me)]W-NH2 (also: Gly6-Leu7 -CONH- replaced by -CH2NH-) [des(1)-Ac-[D-Tyr2,Hyp3,Thr5,Gly7Ψ(CH2NH)Leu8,Arg(Me)9,Trp10]MS10], 2.9.
